One compound from PMC6571972 (Pharmaceutics, 2019) can be followed below.

Structures are written as SMILES.

The nature of data set [1]: pharmacokinetics after i.v. injection. It counts as in vivo. To be noted: 2.5 mg/kg i.v., heterozygous NCR mice. On the procedure: Pharmacokinetics: To evaluate the pharmacokinetic profile of conjugate 8 and its fluorescence-labeled analogue 10, four-weeks-old female heterozygous NCR mice from Charles River were used. Animals were intravenously injected with 2.5 mg/kg (in 2% DMSO in water, dosed at 0.5 mg/mL) of each conjugate. Terminal blood samples were collected via cardiac puncture from animals under deep anesthesia at different time points (5, 15, 30, 60, 180, and 360 min, n = 3). The samples were rapidly transferred to lithium heparin-coated tubes, kept on ice, and subsequently centrifuged at 2000 ×g, 4 °C for 10 min. After centrifugation, plasma was collected and the samples were kept at -20 °C until analyses.

The subject of data set [2] is AtT20/D16v-F2 murine pituitary tumor cells. The data set can be described thus: in vitro cytotoxicity, MTT assay. The format is cell-based. Conditions: 2 h treatment, wash, further 70 h, MTT; read-out: Cytotoxicity in AtT20 (IC50 in nM). On the procedure:
In vitro cytotoxicity: To evaluate the cytotoxicity of conjugates and metabolites, AtT20/D16v-F2 murine pituitary tumor cells obtained from American Type Culture Collection (ATCC, Bethesda, MD, USA) were used. Cell viability was determined using the MTT (3-(4,5-dimethyl thiaz ol-2-yl)-2,5-diphenyltetrazolium bromide) assay. Briefly, cells in DMEM supplemented with 10% FBS, 1% L-glutamine, and 1% penicillin/streptomycin were seeded in 96-well culture plates (3000 cells/well) and incubated overnight in a humidified, 37 °C, 5% CO2 atmosphere to allow for adherence. The following day, cells were treated with serial dilutions of each compound starting at 100 nM for free drugs and 1000 nM for each one of the conjugates and incubated as described for 2 h. 0.1% DMSO served as a control. After incubation, the cells were washed once, media replaced, and incubation continued for further 70 h. At the end of treatment, 5 µL of MTT solution (5 mg/mL in deionized H2O, Sigma #M5655) was added to each well and the cells were incubated for another 2 h. Finally, 100 µL of lysis buffer (10% SDS, 10 mM HCl) was added, and the cells were placed in the incubator overnight for the formazan crystal solubilization. Absorbance at 540 nm was measured using a FLUOstar Omega (BMG Labtech) microplate reader and the growth inhibition ratio was calculated. Blank controls detecting cell-free media absorbance were performed in parallel. Three experimental replicates were used. The half-maximal inhibitory concentration values (IC50) were obtained from viability curves while using GraphPad Prism 6. Cell viability was expressed as percentage relative to the respective control conditions.

Consider `COc1ccc(C[C@H]2NC(=O)/C=C/C[C@@H]([C@H](C)[C@@H](OC(=O)CNC(=O)[C@@H]3CCCN3C(=O)CNC(=O)[C@H](CCCNC(N)=O)NC(=O)[C@@H](NC(=O)CCOCCOCCOCCOCCn3cc(CCC(=O)N[C@H](Cc4ccccc4)C(=O)N[C@H]4CSSC[C@@H](C(=O)N[C@H](CO)[C@@H](C)O)NC(=O)[C@H]([C@@H](C)O)NC(=O)[C@H](CCCCN)NC(=O)[C@@H](Cc5c[nH]c6ccccc56)NC(=O)[C@H](Cc5ccccc5)NC4=O)nn3)C(C)C)[C@@H](Cl)c3ccccc3)OC(=O)[C@H](CC(C)C)OC(=O)C(C)(C)CNC2=O)cc1Cl` [compound 8], for which the “area under the curve (AUC), comparison of 8 with 10” value in data set [1] is listed as “higher”. For the same compound, in data set [1] (female, mouse, plasma, iv, read-out: circulatory half-life), the half-life was 1.73 h. Moreover, the IC50 in data set [2] worked out at 8.37 nM.

What is called half-life is the time needed for the level to fall by half in the phase considered. In general, IC50 refers to the midpoint of a concentration-inhibition curve.
